B1: ANKRD40 (parent)
chain: SLRENDFIEIELDRQELTYQELLR

Variants of: B1
Experiment: protein stability index of a GFP-peptide fusion (GPS, HEK-293T) (PSI 1-6); higher = more stable
Conditions: c terminus: a fixed tail appended
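Also: lentivirally expressed fusions sorted by FACS into six bins by GFP to DsRed ratio, PSI derived from sequencing read proportions per bin multiplied by bin number.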

Protein stability index of substitutions, site by site:
N5: H 2.62; Q 2.96; W 1.72; G 3.03; T 3.09; A 2.57; L 2.14; M 2.4; Y 2.75; C 2.48; I 2.33; S 2.77; F 2.2
Q20: P 2.95; R 2.3; M 2.3; D 3.7; I 1.83; G 3.15; F 1.99; Y 2.29; N 2.65; L 2.04; W 2.25; S 3.3; T 2.97; K 3.2
L23: C 2.97; K 3.85; Y 3.43; M 3.16; V 3.53; P 3.58; A 3.73; T 3.59; F 2.54; Q 3.94; N 4.05
T18: N 3.5; L 2.49; W 2.73; I 2.1; K 2.93; Y 2.59; G 3.53; A 3.06; H 3.2; Q 3.37; V 2.22; R 3.29; D 3.71; E 3.49
D13: G 2.77; Y 1.87; L 2.04; F 1.99; K 2.55; P 2.77; H 2.22; M 2.45; R 2.65; A 2.56; C 2.35; V 1.78; E 2.82; I 1.77; N 3.17; W 1.81
L17: Q 3.57; Y 3.28; W 3.1; P 2.74; S 3.41; A 3.11; F 2.61; V 2.9; I 3.19; H 3.59; T 3.35; R 3.25; E 3.37; K 3.61; N 3.54
F7: N 4.05; H 3.96; A 4.21; E 4.46; C 3.87; V 3.59; M 3.33; D 4.24; T 3.99; L 3.79; I 2.91; Q 4.17; W 3.03; G 4.18; Y 3.54
S1: N 3.31; V 3.17; D 3.12; M 2.66; L 2.84; R 3.07; C 3.07; G 2.77; Q 3.44; E 3.41; A 2.82; I 2.34; Y 2.3; K 3.23; F 2.29; H 3.26; W 2.26; T 3.38
Y19: R 4.13; Q 4.47; D 4.59; C 2.93; L 3.12; T 3.5; K 3.99; M 3.22; G 3.86; S 3.79; E 4.6; V 3.38; N 4.22; W 2.61
I8: F 2.56; K 4.02; Q 4.23; M 4.11; H 3.99; W 3.26; N 4.1; V 3.62; C 3.57; T 4.23; P 3.89
I10: N 3.75; G 3.55; H 4.34; F 3.41; A 4.02; C 3.69; Y 3.33; P 4.24; V 3.32; E 4.63; R 3.53; M 3.62; D 4.12
L22: W 2.86; E 3.66; M 3.34; R 3.74; F 3.14; V 2.77; K 3.97; Q 4.02; T 3.45; D 4.54; I 2.53; A 3.8; P 3.56; G 3.57; C 3.58
E11: A 3.15; H 2.68; W 1.98; D 3.59; P 3.75; N 3.33; R 2.44; F 2.28; K 2.45; Q 2.74; V 2.29; I 2.16; S 2.45
L2: H 3.01; I 2.66; Q 3.48; A 3.91; G 3.02; N 2.89; S 3.2; R 2.8; T 3; K 3.01; D 3.6
E21: H 2.76; Q 3.34; V 1.99; S 2.71; W 1.85; R 2.62; T 2.09; F 1.69; C 1.94; D 2.85; A 2.44; G 2.67; N 2.83; Y 1.77; M 1.92; L 1.69
E4: G 2.57; C 2.16; S 3.21; V 1.83; Y 2.17; L 2.05; H 2.84; F 2.41; K 2.16; N 2.92; D 3.25; P 3.21; R 2.31; Q 2.97
D6: T 2.34; V 1.64; F 2.12; C 2.28; H 2.57; N 2.99; Q 2.76; R 3.14; I 1.28; W 2.31; P 2.97; K 2.64; Y 1.9; G 2.82; A 2.42
R24: W 2.26; Q 3.04; K 3.12; D 3.17; H 2.77; P 3.06; L 3.09; Y 2.43; E 3.88; V 2.71; T 3.06; M 2.52
Q15: M 2.25; A 2.63; N 3.35; Y 2; W 2.37; P 2.78; S 3.17; V 2.44; D 3.59; R 3.41; G 3.68; K 3.29
R14: V 2.06; M 1.85; W 1.79; P 2.86; L 1.73; K 3.31; H 2.97; Q 3.41; Y 1.95; D 3.85; C 2.09; N 3.54; F 1.44
L12: E 4.41; N 4.17; G 4.4; Y 3.34; T 3.88; C 3.88; D 4.51; K 3.91; V 3.54; I 2.69; A 3.92; P 3.72; S 4.18; M 2.67; R 4.14
R3: E 2.85; N 3.06; C 3.14; G 3.26; W 2.26; F 2.37; M 2.54; Y 2.65; H 3.08; L 2.29; T 2.91; Q 2.95; I 2.9; V 2.44; P 3.52; S 3.54; A 3.29
E9: R 1.97; W 1.57; C 2.17; F 1.82; P 3.59; H 2.27; S 2.73; V 1.87; Q 2.51; M 2.14; T 2; K 2.4; A 2.58; N 2.82; Y 2.12
E16: L 2.99; P 3.42; I 2.47; V 2.48; Q 3.18; R 3.04; Y 2.15; T 2.76; M 2.6; C 2.46; D 3.24; W 2.55

From the supplement of paper PMC10567573
